# Literature values in patent US20050096266A1, “Preparation and method for weight reduction” (priority 2002, published 2005).
# B1: soybean trypsin inhibitor: Commercial proteinous trypsin inhibitor (Type Il-S, Sigma Chemical Co.) that binds trypsin, forming inactive complexes (protein, UniProt P01070 25-205, looked up)
# Trypsin inhibitor A: DFVLDNEGNPLENGGTYYILSDITAFGGIRAAPTGNERCPLTVVQSRNELDKGIGTIISSPYRIRFIAEGHPLSLKFDSFAVIMLCVGIPTEWSVVEDLPEGPAVKIGENKDAMDGWFRLERVSDDEFNNYKLVFCPQQAEDDKCGDIGISIDHDDGTRRLVVSKNKPLVVQFQKLDKESL
# Tested on: trypsin
# Settings: trypsin secreted into the duodenum by the pancreas; per one weight unit of inhibitor
molecule,measurement,value
B1,weight units of trypsin inactivated by one weight unit of the inhibitor,2.5 weight units
